Values joined by “and” are separate entries in the source; they are usually repeats but may differ in a detail not shown here. Equal values may be shown once. Square brackets hold non-standard residues; d marks the D form. Ends that are not written are not given here. LTF = trifluoroleucine
Key:
[1] = Passive microrheology (multiple particle tracking); format: physicochemical; conditions: 4 °C
Experimental: Microrheology. Protein was concentrated to 2 mM, as measured by BCA assay, and immediately aliquoted 27.7 μL into a 200 μL PCR tube. 1% v/v (or 0.3 μL) of […] red polystyrene fluorometric beads (FluoSpheres) were then added to the sample. A glass capillary tube was then loaded with sample by capillary action and sealed to prevent evaporation while being affixed to a microscopy slide using two-component fast-curing epoxy (JB Weld). Samples were then imaged at 0 h as a starting measurement and then every 12 h using a Leica DMI4000b inverted microscope equipped with a Leica DFC310 FX 1.4 megapixel camera at 40× magnification with 2×2 binning. […] Each image series was recorded for a total of 300 frames with a lag time (i) of 0.037 s between each frame. Relaxation exponents i.e. the logarithmic slopes of particle mean-squared displacements (MSDs) with respect to lag time as determined by multiple particle tracking (MPT) analysis were used to determine when equilibration of the hydrogel was complete and measurements were no longer recorded (60 h in this case). […]
Gelation kinetics of the hydrogels were assessed using passive microrheology (FIG. 61a-e). Time to gelation was measured immediately after concentration to 2 mM at 4° C. by incubating with 1 μm fluorescent tracer beads added to the protein in solution state at a final concentration of 1% (v/v). […]

Cryo-EM of Q5 gel = format: physicochemical
Experimental: Cryo-Electron Microscopy. Lacey Carbon 300 mesh copper grids (Ted Pella) were used for cryo-EM imaging on FEI TALOS F200C with Ceta 16M camera at 200 kV accelerating voltage. PELCO easiGlow™ Glow Discharge Cleaning System was also used for the plasma treatment of the grids.
Cryo-EM. Cryo-EM samples were prepared with the Vitrobot system (Thermo Fisher Scientific) which can help vitrify a thin solution layer at low temperature. Approximately 4 μl of sample solution was applied to the grids in the chamber of Vitrobot at 4° C. and 100% humidity. The sample solution was incubated for 10 s and then the grid was blotted three times. Blotting lasted 1 s for each time. […] Then, the grid was transferred into liquid nitrogen. The cryo-EM holder was kept at −175° C. to prevent solvent crystallization during the imaging. Coarse-grained Model Details. Each bond is defined by Equation 10: […]

[2] = Linear regression model predictions; conditions: from 181.7 nm fiber diameter
Experimental: A linear model was previously established correlating the increase in thermostability upon binding CCM, and the loss of ordered structure as measured by ATR-FTIR. Based on this model, a 14.5% loss of structure is predicted, which translates to an error of just 0.4% from a measured structure loss of 14.1%, within the root mean squared error (RMSE) of the model, which is calculated here to be 0.9%. […] While CCM-binding imposes a negative impact on the ordered structure of the coiled-coil, a loss of secondary structure measured by ATR-FTIR has been associated with a positive interaction of CCM in the hydrophobic pore, which helps stabilize the protein and increase thermostability. Thus, the fluorination of Q2LTF results in a strengthened interaction with CCM.
Binding of CCM causes fiber thickening of Q2LTF (FIG. 34d, 44), consistent with recent analysis of supramolecular coiled-coil fibers. Fiber-thickening by CCM has been established for collagen activity as well as coiled-coil fibers and is explained by increased solvation of polar groups and burying of the hydrophobic residues leading to increased surface activity. […] While this relationship was assessed for non-fluorinated CCM fibers, the predicted fiber diameter is […] based on a 181.7 nm Q2LTF fiber diameter translating to an error of […], just outside our model's root mean squared error (RMSE) of […] (FIG. 45). […]

[3] = Q, previous results; cited from earlier work
[4] = 10 Hz, Q as reported previously; cited from earlier work

Q: For “Q5: Q hydrogel variant from Rosetta Monte Carlo search, SEQ ID NO: 14 (MRGSHHHHHHGSIEGRVKEITFIKKTIEQIAEEMKEINKAIHDIRHALENISKK) [Protein Q5]”, which “time to complete gelation (sol-gel transition)” value [1] is on record?
A: ≤ 24 h

Q: What about the “fiber diameter (cryo-EM)” value (Cryo-EM of Q5 gel; 0.5 mM, n=100) of the same substance?
A: 3.4±0.7 nm

Q: What about the “fiber diameter (cryo-EM)” value (Cryo-EM of Q5 gel; 1 mM, n=100) of the same substance?
A: 5.6±2.1 nm

Q: And the “fiber spacing by FFT” value (Cryo-EM of Q5 gel; 2 mM)?
A: 14-17 nm

Q: And the “crosslinked fiber diameter (cryo-EM)” value (Cryo-EM of Q5 gel; 2 mM, n=100)?
A: 5.8±1.5 nm

Q: For “Q2LTF: protein-engineered fluorinated coiled-coil fiber, Q2 with trifluoroleucine, SEQ ID NO: 20 (MRGSHHHHHHGSIEGRVKE[LTF][LTF]F[LTF]KKTAEQM[LTF]EE[LTF]KETNKA[LTF]HDVRH[LTF][LTF]ENQSK[LTF]; ends and bridges not checked) [Protein Q2LTF]”, which “predicted CCM-thickened fiber diameter” value [2] is on record?
A: 12.9 μm

Q: For “Q: rationally designed pentameric coiled-coil derived from C, SEQ ID NO: 23 (MRGSHHHHHHGSIEGRVKEITFLKNTAPQMLRELQETNAALQDVRELLRQQSKL) [reference compound]”, which “α-helical secondary structure upon gelation” value [3] is on record?
A: 52%

Q: And the “storage modulus G′” value [4]?
A: 50.4 Pa and 50 Pa

— patent publication US20240115742A1, “FLUORINATED FIBERS FOR MULTIMODAL 1H AND 19F MRI, ULTRASOUND, FLUORESCENCE DETECTION AND CONFORMATIONAL AND TEMPERATURE DETECTION BY 19F MRS” (New York University, priority 2022, published 2024)
